For the experiment, the target named is GST-BS69_(50-401) FW point mutant (F293A, W294A) (human) (UniProt Q15326). As to the kind of experiment: MST.

Broadly, the Kd is the constant that tells how readily two partners part at equilibrium. Low values mean higher affinity, high ones lower affinity.

Sequence of GST-BS69_(50-401) FW point mutant (F293A, W294A) (human) (Q15326 50-401 F293A/W294A): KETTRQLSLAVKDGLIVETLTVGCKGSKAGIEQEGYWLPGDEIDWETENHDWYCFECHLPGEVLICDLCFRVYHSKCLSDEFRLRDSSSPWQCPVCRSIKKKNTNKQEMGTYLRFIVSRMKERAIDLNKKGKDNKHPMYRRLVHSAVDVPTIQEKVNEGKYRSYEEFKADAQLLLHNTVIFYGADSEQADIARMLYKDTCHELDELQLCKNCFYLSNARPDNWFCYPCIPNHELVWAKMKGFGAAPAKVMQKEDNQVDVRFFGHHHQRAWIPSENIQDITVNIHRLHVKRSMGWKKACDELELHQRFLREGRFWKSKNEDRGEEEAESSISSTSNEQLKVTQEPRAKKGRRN

Turning to H3.3K36me3 peptide, the dissociation constant (Kd) stood at 277 µM.

(Values after PMC4363072.)
